Experimental data from doi:10.1101/2024.02.21.581378 (bioRxiv, 2024).

Experiments:
[1] = biological target: macaque TMPRSS2 N469Y on transfected 293T cells (macaque)
[2] = biological target: cleaved soluble TMPRSS2^S441A (TMPRSS2^S441A-Cl) (human, UniProt O15393 107-255; O15393 256-492, S441A); assay: BLI
[3] = biological target: T1, TMPRSS2^S441A (human TMPRSS2 residues 107-492, zymogen, uncleaved) (human, UniProt O15393 107-492, S441A); assay: BLI
[4] = biological target: T1, TMPRSS2^S441A (human TMPRSS2 residues …); assay: crystal structure

T1 sequence (O15393 107-492 S441A): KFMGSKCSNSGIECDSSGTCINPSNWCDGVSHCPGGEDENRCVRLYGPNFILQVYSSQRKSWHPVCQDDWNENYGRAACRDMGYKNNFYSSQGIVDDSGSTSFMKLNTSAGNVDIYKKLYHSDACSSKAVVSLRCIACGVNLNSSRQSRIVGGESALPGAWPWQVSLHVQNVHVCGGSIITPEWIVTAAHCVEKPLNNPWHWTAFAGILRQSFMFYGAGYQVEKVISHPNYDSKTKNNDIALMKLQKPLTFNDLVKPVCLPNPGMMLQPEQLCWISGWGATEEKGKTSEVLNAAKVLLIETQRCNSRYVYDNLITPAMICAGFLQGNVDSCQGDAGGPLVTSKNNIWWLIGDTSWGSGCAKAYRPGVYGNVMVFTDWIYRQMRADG
Sequence of cleaved soluble TMPRSS2^S441A (TMPRSS2^S441A-Cl) (O15393 107-255, chain 1 of 2): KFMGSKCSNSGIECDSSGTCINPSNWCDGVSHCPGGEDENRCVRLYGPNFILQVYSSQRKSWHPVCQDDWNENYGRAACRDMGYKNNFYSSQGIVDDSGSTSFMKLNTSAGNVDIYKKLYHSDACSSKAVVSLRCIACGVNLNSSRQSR
Sequence of cleaved soluble TMPRSS2^S441A (TMPRSS2^S441A-Cl) (O15393 256-492 S441A, chain 2 of 2): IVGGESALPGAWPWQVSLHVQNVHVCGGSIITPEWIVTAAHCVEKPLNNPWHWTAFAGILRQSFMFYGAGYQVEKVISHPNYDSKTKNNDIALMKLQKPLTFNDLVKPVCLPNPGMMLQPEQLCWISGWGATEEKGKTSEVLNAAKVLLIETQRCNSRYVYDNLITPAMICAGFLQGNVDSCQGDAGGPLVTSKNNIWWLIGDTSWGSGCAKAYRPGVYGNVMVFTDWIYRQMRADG

## soluble biotinylated HKU1B spike (from UniProt Q0ZME7) (natural protein)
[1]
  entry of HKU1B pseudoviruses, fold increase against wild-type macaque TMPRSS2: 10 fold

B1: HKU1B RBD (residues 330-614 of the spike protein), wild type (domain or fragment)
chain: DNWLNNVSVPSPLNWERRIFSNCNFNLSTLLRLVHVDSFSCNNLDKSKIFGSCFNSITVDKFAIPNRRRDDLQLGSSGFLQSSNYKIDISSSSCQLYYSLPLVNVTINNFNPSSWNRRYGFGSFNLSSYDVVYSDHCFSVNSDFCPCADPSVVNSCAKSKPPSAICPAGTKYRHCDLDTTLYVKNWCRCSCLPDPISTYSPNTCPQKKVVVGIGEHCPGLGINEEKCGTQLNHSSCFCSPDAFLGWSFDSCISNNRCNIFSNFIFNGINSGTTCSNDLLYSNTEI
[2]
  Kd: 30 nM

B2: HKU1B RBD (residues 330-614) K487A (domain or fragment)
chain: DNWLNNVSVPSPLNWERRIFSNCNFNLSTLLRLVHVDSFSCNNLDKSKIFGSCFNSITVDKFAIPNRRRDDLQLGSSGFLQSSNYKIDISSSSCQLYYSLPLVNVTINNFNPSSWNRRYGFGSFNLSSYDVVYSDHCFSVNSDFCPCADPSVVNSCAASKPPSAICPAGTKYRHCDLDTTLYVKNWCRCSCLPDPISTYSPNTCPQKKVVVGIGEHCPGLGINEEKCGTQLNHSSCFCSPDAFLGWSFDSCISNNRCNIFSNFIFNGINSGTTCSNDLLYSNTEI
[2]
  binding result: binds
[3]
  binding result: binds

B3: HKU1B RBD (residues 330-614) S529A (domain or fragment)
chain: DNWLNNVSVPSPLNWERRIFSNCNFNLSTLLRLVHVDSFSCNNLDKSKIFGSCFNSITVDKFAIPNRRRDDLQLGSSGFLQSSNYKIDISSSSCQLYYSLPLVNVTINNFNPSSWNRRYGFGSFNLSSYDVVYSDHCFSVNSDFCPCADPSVVNSCAKSKPPSAICPAGTKYRHCDLDTTLYVKNWCRCSCLPDPISTYAPNTCPQKKVVVGIGEHCPGLGINEEKCGTQLNHSSCFCSPDAFLGWSFDSCISNNRCNIFSNFIFNGINSGTTCSNDLLYSNTEI
[2]
  binding result: binds

B4: HKU1B RBD (residues 330-614) L510R (domain or fragment)
chain: DNWLNNVSVPSPLNWERRIFSNCNFNLSTLLRLVHVDSFSCNNLDKSKIFGSCFNSITVDKFAIPNRRRDDLQLGSSGFLQSSNYKIDISSSSCQLYYSLPLVNVTINNFNPSSWNRRYGFGSFNLSSYDVVYSDHCFSVNSDFCPCADPSVVNSCAKSKPPSAICPAGTKYRHCDLDTTRYVKNWCRCSCLPDPISTYSPNTCPQKKVVVGIGEHCPGLGINEEKCGTQLNHSSCFCSPDAFLGWSFDSCISNNRCNIFSNFIFNGINSGTTCSNDLLYSNTEI
[2]
  binding result: binds
[3]
  binding result: binds

B5: HKU1B RBD (residues 330-614) Y528A (domain or fragment)
chain: DNWLNNVSVPSPLNWERRIFSNCNFNLSTLLRLVHVDSFSCNNLDKSKIFGSCFNSITVDKFAIPNRRRDDLQLGSSGFLQSSNYKIDISSSSCQLYYSLPLVNVTINNFNPSSWNRRYGFGSFNLSSYDVVYSDHCFSVNSDFCPCADPSVVNSCAKSKPPSAICPAGTKYRHCDLDTTLYVKNWCRCSCLPDPISTASPNTCPQKKVVVGIGEHCPGLGINEEKCGTQLNHSSCFCSPDAFLGWSFDSCISNNRCNIFSNFIFNGINSGTTCSNDLLYSNTEI
[2]
  binding result: binds
[3]
  binding result: binds

B6: HKU1B RBD and subdomain-1 (RBD-SD1, residues 307-675 of the spike protein) (domain or fragment)
chain: SGFTVKPVATVYRRIPNLPDCDIDNWLNNVSVPSPLNWERRIFSNCNFNLSTLLRLVHVDSFSCNNLDKSKIFGSCFNSITVDKFAIPNRRRDDLQLGSSGFLQSSNYKIDISSSSCQLYYSLPLVNVTINNFNPSSWNRRYGFGSFNLSSYDVVYSDHCFSVNSDFCPCADPSVVNSCAKSKPPSAICPAGTKYRHCDLDTTLYVKNWCRCSCLPDPISTYSPNTCPQKKVVVGIGEHCPGLGINEEKCGTQLNHSSCFCSPDAFLGWSFDSCISNNRCNIFSNFIFNGINSGTTCSNDLLYSNTEISTGVCVNYDLYGITGQGIFKEVSAAYYNNWQNLLYDSNGNIIGFKDFLTNKTYTILPCYSG
[4]
  binding result: binds
